Here are results for five substances from the supplement of paper PMC5998384.

For data set [1], the system named is HeLa Kyoto. Kind of data set: thermal stability score vs G1/S (z-score of summed log2 fold changes over temperatures); higher = more thermally stable than in G1/S.
For data set [2], the system named is HeLa Kyoto. Kind of data set: melting temperature (median over replicates), in situ; higher = more thermally stable.
The subject of data set [3] is HeLa Kyoto. Briefly: solubility in G1/S (NP-40 vs SDS abundance) (log2 ratio); higher = more soluble. Conditions: cell cycle stage: G1/S.
For data set [4], the system named is HeLa Kyoto. Kind of data set: solubility change mitosis vs G1/S (difference of NP-40 vs SDS log2 ratios) (log2 ratio difference); higher = more soluble in mitosis.
Where [5] appears, read: cell cycle stage: early G1 (4.5 h after nocodazole release).
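Throughout, for melting temperature (median over replicates), in situ: HeLa Kyoto cells synchronized by double thymidine or nocodazole block, proteins quantified by TMT10plex mass spectrometry, three independent biological replicates.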
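Throughout, for solubility change mitosis vs G1/S (difference of NP-40 vs SDS log2 ratios): synchronized HeLa Kyoto cells (double thymidine block for G1/S, nocodazole release for mitosis), protein amounts in NP-40 versus SDS lysates quantified by mass spectrometry, three biological replicates.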
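Throughout, for solubility in G1/S (NP-40 vs SDS abundance): HeLa Kyoto cells arrested at G1/S by double thymidine block, proteins quantified by TMT10plex mass spectrometry in mild NP-40 versus SDS extracts, three biological replicates.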
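Throughout, for thermal stability score vs G1/S (z-score of summed log2 fold changes over temperatures): synchronized HeLa Kyoto cells, proteins quantified by TMT10plex mass spectrometry, three biological replicates, mitosis taken 0.5 h after nocodazole release, G1/S directly after double thymidine block.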

Sequence of NUDC (chain, as listed by the source): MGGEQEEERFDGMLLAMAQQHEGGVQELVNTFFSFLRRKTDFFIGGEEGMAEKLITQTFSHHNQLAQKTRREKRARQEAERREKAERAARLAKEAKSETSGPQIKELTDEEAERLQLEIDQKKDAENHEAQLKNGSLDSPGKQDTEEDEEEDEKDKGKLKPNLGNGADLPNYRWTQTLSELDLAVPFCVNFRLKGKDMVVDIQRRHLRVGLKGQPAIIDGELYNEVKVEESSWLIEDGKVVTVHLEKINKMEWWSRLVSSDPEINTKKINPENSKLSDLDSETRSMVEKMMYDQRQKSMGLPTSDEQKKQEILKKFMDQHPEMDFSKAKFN

For “MQRLQVVLGHLRGPADSGWMPQAAPCLSGAPQASAADVVVVHGRRTAICRAGRGGFKDTTPDELLSAVMTAVLKDVNLRPEQLGDICVGNVLQPGAGAIMARIAQFLSDIPETVPLSTVNRQCSSGLQAVASIAGGIRNGSYDIGMACGVESMSLADRGNPGNITSRLMEKEKARDCLIPMGITSENVAERFGISREKQDTFALASQQKAARAQSKGCFQAEIVPVTTTVHDDKGTKRSITVTQDEGIRPSTTMEGLAKLKPAFKKDGSTTAGNSSQVSDGAAAILLARRSKAEELGLPILGVLRSYAVVGVPPDIMGIGPAYAIPVALQKAGLTVSDVDIFEINEAFASQAAYCVEKLRLPPEKVNPLGGAVALGHPLGCTGARQVITLLNELKRRGKRAYGVVSMCIGTGMGAAAVFEYPGN [ACAA1]”, the thermal stability score is 0.354 in data set [1] (setting [5]) and -0.509 in data set [1] (cell cycle stage: mitosis). The melting temperature was 55.1 °C in data set [2] (cell cycle stage: G1/S) and 55.3 °C in data set [2] (cell cycle stage: mitosis). Moreover, in data set [3], the “solubility in G1/S (log2)” value was determined as 0.126. Besides, the “solubility change mitosis (log2)” value in data set [4] is -0.102.
Consider NUDC, for which the results for the thermal stability score in data set [1] (setting [5]) and in data set [1] (cell cycle stage: mitosis) were 0.837 and -0.681, respectively. Further, the values for the melting temperature in data set [2] (cell cycle stage: G1/S) and in data set [2] (cell cycle stage: mitosis) were 51.9 °C and 52.4 °C, respectively. The “solubility in G1/S (log2)” value in data set [3] came out at 0.405. Moreover, the “solubility change mitosis (log2)” value in data set [4] is -0.106.
For the substance “MAGVSFSGHRLELLAAYEEVIREESAADWALYTYEDGSDDLKLAASGEGGLQELSGHFENQKVMYGFCSVKDSQAALPKYVLINWVGEDVPDARKCACASHVAKVAEFFQGVDVIVNASSVEDIDAGAIGQRLSNGLARLSSPVLHRLRLREDENAEPVGTTYQKTDAAVEMKRINREQFWEQAKKEEELRKEEERKKALDERLRFEQERMEQERQEQEERERRYREREQQIEEHRRKQQTLEAEEAKRRLKEQSIFGDHRDEEEETHMKKSESEVEEAAAIIAQRPDNPREFFKQQERVASASAGSCDVPSPFNHRPGSHLDSHRRMAPTPIPTRSPSDSSTASTPVAEQIERALDEVTSSQPPPLPPPPPPAQETQEPSPILDSEETRAAAPQAWAGPMEEPPQAQAPPRGPGSPAEDLMFMESAEQAVLAAPVEPATADATEIHDAADTIETDTATADTTVANNVPPAATSLIDLWPGNGEGASTLQGEPRAPTPPSGTEVTLAEVPLLDEVAPEPLLPAGEGCATLLNFDELPEPPATFCDPEEVEGESLAAPQTPTLPSALEELEQEQEPEPHLLTNGETTQKEGTQASEGYFSQSQEEEFAQSEELCAKAPPPVFYNKPPEIDITCWDADPVPEEEEGFEGGD [DBN1]”, the thermal stability score was -3.76 in data set [1] (setting [5]) and -0.742 in data set [1] (cell cycle stage: mitosis). In addition, the melting temperature in data set [2] (cell cycle stage: G1/S) stood at 52.3 °C; in data set [2] (cell cycle stage: mitosis), 52.1 °C. The “solubility in G1/S (log2)” value in data set [3] is -1.2. The “solubility change mitosis (log2)” value in data set [4] was 0.101.
Turning to “MTELQQDVEDTKPAKVLGKRESKLGSAHSEAENGVEEKKKACRSPTAQSPTPSVEADSPDQKKIISLWSKSSFDGASLASDKNDCKTESKNDPKTERKKSSSSSQYKANMHFHKLFLSVPTEEPLKQSFTCALQKEILYQGKLFVSENWICFHSKVFGKDTKISIPAFSVTLIKKTKTALLVPNALIIATVTDRYIFVSLLSRDSTYKLLKSVCGHLENTSVGNSPNPSSAENSFRADRPSSLPLDFNDEFSDLDGVVQQRRQDMEGYSSSGSQTPESENSRDFHATESQTVLNVSKGEAKPTRADAHVNRVPEGKAKSLPVQGLSETVGILHKVKSQKCPMLHHILIFYAIVVCALIISTFYMRYRINTLEEQLGLLTSIVDTHNTEQAAPSGLRSQVQFNVEVLCQELTANIVKLEKIQNNLQKLLENGD [GRAMD3]”, the thermal stability score in data set [1] (setting [5]) was -0.258; in data set [1] (cell cycle stage: mitosis) it was 1.75. The figures for the melting temperature in data set [2] (cell cycle stage: G1/S) and in data set [2] (cell cycle stage: mitosis) were 49.3 °C and 51 °C, respectively. Further, in data set [3], the “solubility in G1/S (log2)” value worked out at 0.0879. The “solubility change mitosis (log2)” value in data set [4] is -0.244.
Regarding “MQSWSRVYCSLAKRGHFNRISHGLQGLSAVPLRTYADQPIDADVTVIGSGPGGYVAAIKAAQLGFKTVCIEKNETLGGTCLNVGCIPSKALLNNSHYYHMAHGKDFASRGIEMSEVRLNLDKMMEQKSTAVKALTGGIAHLFKQNKVVHVNGYGKITGKNQVTATKADGGTQVIDTKNILIATGSEVTPFPGITIDEDTIVSSTGALSLKKVPEKMVVIGAGVIGVELGSVWQRLGADVTAVEFLGHVGGVGIDMEISKNFQRILQKQGFKFKLNTKVTGATKKSDGKIDVSIEAASGGKAEVITCDVLLVCIGRRPFTKNLGLEELGIELDPRGRIPVNTRFQTKIPNIYAIGDVVAGPMLAHKAEDEGIICVEGMAGGAVHIDYNCVPSVIYTHPEVAWVGKSEEQLKEEGIEYKVGKFPFAANSRAKTNADTDGMVKILGQKSTDRVLGAHILGPGAGEMVNEAALALEYGASCEDIARVCHAHPTLSEAFREANLAASFGKSINF [DLD]”, the thermal stability score in data set [1] (setting [5]) was -0.545; in data set [1] (cell cycle stage: mitosis), -2.94. For the same substance, the figures for the melting temperature in data set [2] (cell cycle stage: G1/S) and in data set [2] (cell cycle stage: mitosis) were 58.6 °C and 56.8 °C, respectively. In data set [3], the “solubility in G1/S (log2)” value is -0.00434. For the same substance, the “solubility change mitosis (log2)” value in data set [4] is -0.0404.
